In patent US20190169308A1 (ALLIGATOR BIOSCIENCE, published 2019):

Tests used:
[1] = target: T1, CD40-Fc (Ancell #504-820) (human, UniProt P25942 21-193); test: ELISA, coated CD40-Fc
T1 construct: not shown: Fc part, bought reagent, not described
Procedure: (§1) ELISA plates (Greiner #655074) were coated with 50 μl/well of recombinant human OX40 (R&D #1493-CD), CD40-Fc (Ancell #504-820) or CD137 (R&D #838-4B) diluted to a final concentration of 0.5 μg/ml in PBS for 1h at 37° C. or overnight at 4° C. Plates were washed with PBS+0.05% TWEEN20 (PBST), followed by block with PBST+1% bovine serum albumin (BSA). Antibody samples were prepared as serial 1/10 dilutions from 10-0.01 μg/ml in PBST+1% BSA and incubated for 1 h in room temperature, followed by detection using a horse radish peroxidase-conjugated anti-human kappa light chain antibody (AbD Serotec #STAR127P) and developed using SuperSignal ELISA Pico Chemiluminescent substrate (Pierce ThermoScientific #37069).

[2] = target: T2, recombinant human OX40 (R&D #1493-CD) (human, UniProt P43489 29-216, limits assumed); test: ELISA, coated OX40
T2 sequence (looked up): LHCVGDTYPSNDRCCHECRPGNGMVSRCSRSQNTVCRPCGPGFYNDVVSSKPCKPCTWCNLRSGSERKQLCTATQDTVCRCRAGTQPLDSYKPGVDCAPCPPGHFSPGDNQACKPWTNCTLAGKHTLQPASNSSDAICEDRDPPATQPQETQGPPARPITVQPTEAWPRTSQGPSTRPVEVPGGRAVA
Procedure: as §1

[3] = target: T3, human/mouse CD137 chimera 1550; test: flow cytometry, 293-F cells with CD137 chimera; Exp 1
T3 construct: on transfected FreeStyle 293-F cells
Procedure: (§2) The ability of each antibody to bind to a panel of human/mouse CD137 chimeras expressed on the surface of transfected cells was analyzed by flow cytometry.
(§3) The chimeras were designed by exchanging domains or modules of the human CD137 with the corresponding mouse domain (FIG. 7). Genes of CD137 human/mouse chimeras were synthesized (GenScript) and constructs cloned into pcDNA3.1 vector (Invitrogen) and transiently transfected into FreeStyle 293-F cells (Invitrogen). The transfected cells were incubated with CD137 antibodies and control antibodies, followed by incubation with anti-human IgG-PE (Jackson Immunoresearch) for detection and analyzed with FACS Verse (BD Biosciences). Binding to the different chimeric constructs was calculated as relative MFI compared to the binding of the isotype control, followed by normalization to the full-length human CD137 construct to minimize the effect of affinity differences between individual antibodies.

[4] = target: T4, human/mouse CD137 chimera 1551; test: as above
T4 construct: on transfected FreeStyle 293-F cells
Procedure: as §2, §3

[5] = target: T5, human/mouse CD137 chimera 1552; test: as above
T5 construct: on transfected FreeStyle 293-F cells
Procedure: as §2, §3

[6] = target: T6, human/mouse CD137 chimera 1553; test: as above
T6 construct: on transfected FreeStyle 293-F cells
Procedure: as §2, §3

[7] = target: T7, human/mouse CD137 chimera 1554; test: as above
T7 construct: on transfected FreeStyle 293-F cells
Procedure: as §2, §3

[8] = target: T8, human/mouse CD137 chimera 1555; test: as above
T8 construct: on transfected FreeStyle 293-F cells
Procedure: as §2, §3

[9] = target: T3, human/mouse CD137 chimera 1550; test: flow cytometry, 293-F cells with CD137 chimera; Exp 2
Procedure: as §2, §3

[10] = target: T4, human/mouse CD137 chimera 1551; test: as above
Procedure: as §2, §3

[11] = target: T5, human/mouse CD137 chimera 1552; test: as above
Procedure: as §2, §3

[12] = target: T6, human/mouse CD137 chimera 1553; test: as above
Procedure: as §2, §3

[13] = target: T7, human/mouse CD137 chimera 1554; test: as above
Procedure: as §2, §3

[14] = target: T8, human/mouse CD137 chimera 1555; test: as above
Procedure: as §2, §3

[15] = target: T9, recombinant human CD137-Fc (R&D #838-4B) (human, UniProt Q07011 24-186); test: ELISA, coated CD137-Fc
T9 construct: bought; also called CD137 (R&D #838-4B); not shown: Fc part, bought reagent, not described
T9 sequence (Q07011 24-186 limits assumed): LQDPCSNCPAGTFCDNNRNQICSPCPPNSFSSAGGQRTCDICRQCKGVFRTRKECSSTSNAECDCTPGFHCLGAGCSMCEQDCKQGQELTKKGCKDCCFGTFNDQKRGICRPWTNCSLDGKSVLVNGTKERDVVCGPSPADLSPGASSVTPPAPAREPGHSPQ
Procedure: (§4) Binding of CD137 antibodies to recombinant human CD137 was determined by sandwich ELISA. Briefly, ELISA plates (Greiner #655074) coated with recombinant human CD137-Fc (R&D #838-4B) were incubated with serial dilutions of the various CD137 antibodies to be investigated. CD137 antibodies were detected using HRP-conjugated goat-anti-human kappa light chain (AbD Serotec #STAR127P) and developed with SuperSignal ELISA Pico Chemiluminescent substrate (Pierce #37069). EC50 values of the various antibodies were determined in 2-6 separate experiments.

[16] = target: T9, recombinant human CD137-Fc (R&D #838-4B); test: ELISA, coated CD137-Fc; remark: listed apart in the source
Procedure: as §4

[17] = target: T9, recombinant human CD137-Fc (R&D #838-4B); test: ELISA, coated CD137 (R&D #838-4B)
[18] = target: T1, CD40-Fc (Ancell #504-820); test: ELISA, coated CD40-Fc; coated CD40-Fc
Procedure: as §1

[19] = target: T10, cynomolgus CD137 on transfected CHO cells (cynomolgus; human); test: flow cytometry, CD137-transfected CHO cells
T10 construct: extracellular domain;domain: transmembrane and intracellular part; also called CHO-cyCD137; CHOcynoCD137
T10 sequence (P25942 other isoform, or with tags, fused parts or gaps): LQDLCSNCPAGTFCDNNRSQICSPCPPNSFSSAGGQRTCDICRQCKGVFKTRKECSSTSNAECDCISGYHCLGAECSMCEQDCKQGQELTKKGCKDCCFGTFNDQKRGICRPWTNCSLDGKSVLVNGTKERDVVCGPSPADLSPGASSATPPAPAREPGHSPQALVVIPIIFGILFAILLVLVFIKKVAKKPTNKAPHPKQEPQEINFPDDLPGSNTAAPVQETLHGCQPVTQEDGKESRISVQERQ
Procedure: (§5) Binding and EC50 was determined using flow cytometric analysis of CHO cells transfected with human CD137, cynomolgus CD137 or empty vector. The extracellular part of human or cynomolgus CD137 was fused to the transmembrane and intracellular part of human CD40 and cloned into pcDNA3.1. The vector was subsequently stably transfected into CHO cells. […] CD137-transfected and empty vector-transfected cells were incubated with CD137 antibodies for at least 1h at 4° C. to saturate the binding. In order to minimize antibody internalization, 0.05% sodium azide was used in the incubation buffer and all work was performed on ice. […] Directly after staining the cells were fixed with a paraformaldehyde solution (10x concentrate BD CellFIX, BD biosciences #340181). Cells were analyzed by flow cytometry using FACSVerse (BD Biosciences). The median fluorescence intensity (MFI) for each sample was determined and the dose response data was analysed using Graph Pad Prism.
(§6) MFI data was normalized for each antibody, where 0% is defined as the lowest value and 100% is the highest value in the dose titration for each antibody.

[20] = target: T10, cynomolgus CD137 on transfected CHO …; test: flow cytometry, CHO-cyCD137; 95% CI of EC50
Procedure: as §5, §6

[21] = target: T11, human CD137 on transfected CHO cells (human, UniProt Q07011 24-186; P25942 194-277, limits assumed); test: flow cytometry, CHO-huCD137; 95% CI of EC50
T11 construct: extracellular domain;domain: transmembrane and intracellular part; also called CHO-huCD137; CHOhCD137
T11 sequence (Q07011 other isoform, or with tags, fused parts or gaps limits assumed): as the sequence (P25942 other isoform, or with tags, fused parts or gaps) above, with L4P, S19N, K50R, I66T, S67P, Y69F, E75G, A149V counted along it
Procedure: as §5, §6

[22] = target: T3, human/mouse CD137 chimera 1550; test: flow cytometry, 293-F cells with CD137 chimera
Procedure: as §2, §3

[23] = target: T4, human/mouse CD137 chimera 1551; test: flow cytometry, 293-F cells with CD137 chimera
Procedure: as §2, §3

[24] = target: T5, human/mouse CD137 chimera 1552; test: flow cytometry, 293-F cells with CD137 chimera
Procedure: as §2, §3

[25] = target: T6, human/mouse CD137 chimera 1553; test: flow cytometry, 293-F cells with CD137 chimera
Procedure: as §2, §3

[26] = target: T7, human/mouse CD137 chimera 1554; test: flow cytometry, 293-F cells with CD137 chimera
Procedure: as §2, §3

[27] = target: T8, human/mouse CD137 chimera 1555; test: flow cytometry, 293-F cells with CD137 chimera
Procedure: as §2, §3

[28] = target: Human CD137 (R&D systems) (human, UniProt Q07011 24-186, limits assumed); test: SPR Biacore, amine-coupled CD137, mAb injected (bivalent)
Sequence of Human CD137 (R&D systems) (Q07011 24-186 limits assumed): as the sequence (Q07011 24-186 limits assumed) above
Procedure: Human CD137 (R&D systems) was immobilized to the Biacore™ sensor chip, CMS, using conventional amine coupling. The tested antibody and control (serially diluted 1/2 10-0.63 nM) were analyzed for binding in HBS-P (GE, #BR-1003-68) at a flow rate of […]. The association was followed for 5 minutes and the dissociation for 15 minutes. Regeneration was performed twice using 10 mM Glycine pH 1.7 for 30 seconds. The kinetic parameters and the affinity constants were calculated using 1:1 Langmuir model.

[29] = target: T12, full-length human CD137 construct 1030 (human, UniProt Q07011 24-255); test: flow cytometry, 293-F cells with full-length CD137 (reference of the normalization)
T12 construct: whole, on cells; on transfected FreeStyle 293-F cells; also called Full-length CD137
T12 sequence (Q07011 24-255): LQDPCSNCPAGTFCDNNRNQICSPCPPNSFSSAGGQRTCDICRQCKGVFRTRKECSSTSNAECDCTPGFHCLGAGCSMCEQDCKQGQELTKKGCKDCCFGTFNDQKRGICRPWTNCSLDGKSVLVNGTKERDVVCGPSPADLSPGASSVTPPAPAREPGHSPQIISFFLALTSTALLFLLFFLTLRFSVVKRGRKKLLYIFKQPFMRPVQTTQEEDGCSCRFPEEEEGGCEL
Procedure: as §2, §3

T1 sequence (P25942 21-193 limits assumed): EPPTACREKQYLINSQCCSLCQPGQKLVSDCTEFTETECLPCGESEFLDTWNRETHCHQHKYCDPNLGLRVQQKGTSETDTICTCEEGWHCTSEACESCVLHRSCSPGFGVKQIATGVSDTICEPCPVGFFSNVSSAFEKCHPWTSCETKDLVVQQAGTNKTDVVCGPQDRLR

B1: 1214/1215 (antibody, V domains shown)
VH: EVQLLESGGGLVQPGGSLRLSCAASGFTFSSYAMSWVRQAPGKGLEWVSSIGSGGGYTGYADSVKGRFTISRDNSKNTLYLQMNSLRAEDTAVYYCARVGHPFDYWGQGTLVTVSS
VL: DIQMTQSPSSLSASVGDRVTITCRASQSISSYLNWYQQKPGKAPKLLIYAASSLQSGVPSRFSGSGSGTDFTLTISSLQPEDFATYYCQQDAYPHTFGQGTKLEIK
- binding result [1]: no binding (tested: 10 µg/ml)
- binding result [2]: no binding (tested: 10 µg/ml)
- MFI/isotype control normalized to full-length human CD137 [3]: 0.06
- MFI/isotype control normalized to full-length human CD137 [4]: 0.07
- MFI/isotype control normalized to full-length human CD137 [5]: 0.32
- MFI/isotype control normalized to full-length human CD137 [6]: 0.41
- MFI/isotype control normalized to full-length human CD137 [7]: 0.26
- MFI/isotype control normalized to full-length human CD137 [8]: 0.3
- MFI/isotype control normalized to full-length human CD137 [9]: 0.14
- MFI/isotype control normalized to full-length human CD137 [10]: 0.15
- MFI/isotype control normalized to full-length human CD137 [11]: 0.13
- MFI/isotype control normalized to full-length human CD137 [12]: 0.15
- MFI/isotype control normalized to full-length human CD137 [13]: 0.15
- MFI/isotype control normalized to full-length human CD137 [14]: 0.45

B2: 1202/1203 (antibody, V domains shown)
VH: EVQLLESGGGLVQPGGSLRLSCAASGFTFYGSSMSWVRQAPGKGLEWVSSIYYGSSGTYYADSVKGRFTISRDNSKNTLYLQMNSLRAEDTAVYYCARSYYGYFDYWGQGTLVTVSS
VL: DIQMTQSPSSLSASVGDRVTITCRASQSISSYLNWYQQKPGKAPKLLIYAASSLQSGVPSRFSGSGSGTDFTLTISSLQPEDFATYYCQQYYTVVPFTFGQGTKLEIK
- EC50 [1]: > 10 µg/mL
- EC50 [15]: ~0.06 µg/mL
- EC50 [16]: 0.41 nM
- EC50 [17]: 0.4 nM
- EC50 [18]: > 40 nM
- Ratio, cyno:human [19]: 0.67
- EC50 [20]: 0.11 to 0.17 µg/mL
- EC50 [21]: 0.16 to 0.27 µg/mL
- MFI/isotype control normalized to full-length human CD137 [22]: 0.05
- MFI/isotype control normalized to full-length human CD137 [23]: 0.05
- MFI/isotype control normalized to full-length human CD137 [24]: 0.06
- MFI/isotype control normalized to full-length human CD137 [25]: 0.65
- MFI/isotype control normalized to full-length human CD137 [26]: 0.51
- MFI/isotype control normalized to full-length human CD137 [27]: 0.26
- Kd [28]: 0.976 nM
- koff [28]: 0.00066 s⁻¹
- kon [28]: 676000 M⁻¹ s⁻¹
- MFI/isotype control normalized to full-length human CD137 [29]: 1
